For two molecules, koff and Kd results are on record in publication PMC10088672 (2023).

In assay [1] the target is T1, SARS-CoV-2 spike RBD, Wuhan-Hu-1 (SARS-CoV-2, UniProt P0DTC2 321-536). As to the kind of experiment: BLI. A general note: In BLI a coated tip is dipped into the sample, and binding shifts an interference pattern.
Assay [2] deals with T1, SARS-CoV-2 spike RBD, Wuhan-Hu-1. Briefly: BLI. The source holds these as a separate data set.

B1: NCV2SG48 monoclonal antibody (human IgG) (antibody, V domains shown)
VH: EVQLVESGGGLIQPGGSLRLSCAASGFIVSRNYMNWVRQAPGKGLEWVALIYSGGSTFYADSVKGRFTISRDNSKNTLYLQMNSLRAEDTAVYYCARDLVVYGLDYWGQGTLVTVSS
VL: AIQLTQSPSSLSASVGDRVTITCRASQGISSHLAWYQQKPGKAPKLLIFAASTLQSGVPSRFSGSGSGTDFTLTISSLQPEDFATYYCQHLNSNPPITFGQGTRLEIK
One may read the koff as a measure of how fast the partners let go of each other. Lower therefore signals a long-lived complex. What is called Kd is a measure of binding affinity in units of concentration. Take B1: the koff in assay [1] was found to be 0.00015 s⁻¹. The molecule also showed a Kd in assay [2] of 2.5 nM.

B2: NCV2SG53 monoclonal antibody (human IgG) (antibody, V domains shown)
VH: QVQMVESGGGLVRPGGSLRLSCAASGFTFSDYYMSWIRQAPGKGLEWISYISSSGSSMNYADSVKGRFTISRDNAKNSLFLQMNSLRAEDTAVYYCAREFDLTKIIMVPPYWGQGTLVTVSS
VL: AIQLTQSPSSLSASVGDRVTITCRASQGISSYLAWYQQKPGKAPKVLIYAASTLQSGVPSRFSGSGSGTDFTLTISSLQPEDFATYYCQQLKSYPLTFGGGTKVEIT
In assay [1], B2 showed a koff of 0.00022 s⁻¹. This molecule also returned a Kd in assay [2] of 2.6 nM.
